Legend:
[1] = target: T1, extracellular domains of UNC5h2 (CAD32251, aa: 25-374) (Mus musculus, UniProt Q8K1S3 25-374); experiment: solid-phase binding
T1 construct: also called UNC5h2 full-length ectodomain; not shown: C-terminal double Strep-tag II

[2] = target: T2, Netrin-1 (NET1) from Mus musculus lacking the C-terminal domain (NP_032770, aa: 24-457) (Mus musculus, UniProt O09118 24-457); experiment: solid-phase binding
[3] = target: T2, Netrin-1 (NET1) from Mus musculus …; experiment: solid-phase binding, NEO1 immobilized

Row | binding result [2] | Binder | further results
1 | – | NET1 with the eight loop a/b residues 348RRCRFNME355 replaced by the equivalent residues from NET4 (339DTCHFDVN346) (ligand, C350 and F352 are the same in both; also called NET1/NET4 loop a/b swap) not shown | fold drop in affinity against wild type NET1 [1]: 50 fold
2 | no binding | UNC5h2 IgG2 (CAD32251, aa: 154-245) (receptor, also called Ig2; Ig2 domain of UNC5h2; not shown: C-terminal double Strep-tag II) not shown | –
3 | binds | UNC5h2 IgG1 (CAD32251, aa: 52-153) (receptor, also called Ig1; Ig1 domain of UNC5h2; not shown: C-terminal double Strep-tag II) not shown | –
4 | – | full-length ectodomain of NEO1 (AAH54540, aa: 41-1107) (receptor, also called neogenin; NEO1 full-length ectodomain; not shown: C-terminal double Strep-tag II) GAAATKSGSPPQSAGASVRTFTPFYFLVEPVDTLSVRGSSVILNCSAYSEPSPNIEWKKDGTFLNLESDDRRQLLPDGSLFISNVVHSKHNKPDEGFYQCVATVDNLGTIVSRTAKLTVAGLPRFTSQPEPSSVYVGNSAILNCEVNADLVPFVRWEQNRQPLLLDDRIVKLPSGTLVISNATEGDGGLYRCIVESGGPPKFSDEAELKVLQDPEEIVDLVFLMRPSSMMKVTGQSAVLPCVVSGLPAPVVRWMKNEEVLDTESSGRLVLLAGGCLEISDVTEDDAGTYFCIADNGNKTVEAQAELTVQVPPGFLKQPANIYAHESMDIVFECEVTGKPTPTVKWVKNGDVVIPSDYFKIVKEHNLQVLGLVKSDEGFYQCIAENDVGNAQAGAQLIILEHDVAIPTLPPTSLTSATTDHLAPATTGPLPSAPRDVVASLVSTRFIKLTWRTPASDPHGDNLTYSVFYTKEGVARERVENTSQPGEMQVTIQNLMPATVYIFKVMAQNKHGSGESSAPLRVETQPEVQLPGPAPNIRAYATSPTSITVTWETPLSGNGEIQNYKLYYMEKGTDKEQDIDVSSHSYTINGLKKYTEYSFRVVAYNKHGPGVSTQDVAVRTLSDVPSAAPQNLSLEVRNSKSIVIHWQPPSSTTQNGQITGYKIRYRKASRKSDVTETLVTGTQLSQLIEGLDRGTEYNFRVAALTVNGTGPATDWLSAETFESDLDETRVPEVPSSLHVRPLVTSIVVSWTPPENQNIVVRGYAIGYGIGSPHAQTIKVDYKQRYYTIENLDPSSHYVITLKAFNNVGEGIPLYESAVTRPHTVPDPTPMMPPVGVQASILSHDTIRITWADNSLPKHQKITDSRYYTVRWKTNIPANTKYKNANATTLSYLVTGLKPNTLYEFSVMVTKGRRSSTWSMTAHGATFELVPTSPPKDVTVVSKEGKPRTIIVNWQPPSEANGKITGYIIYYSTDVNAEIHDWVIEPVVGNRLTHQIQELTLDTPYYFKIQARNSKGMGPMSEAVQFRTPKALGSAGKGSRLPDLGSDYKPPMSGSNSPHGSPTSPLDSN | binding result [3]: binds

— patent US20200165308A1 (UNIVERSITY OF MANITOBA, published 2020)
